Test results as given in publication PMC13376213, “Systematic discovery of motif-based interactions of the auxiliary domains of USP family deubiquitinases” (Nature Communications, 2026).

Assays:
[1] = tested on: FLAG-USP33; assay: IP-MS of FLAG-USP33 and variants vs empty vector; assay type: cell-based, human
Description: For transfection, 1x10^6 HEK293 cells were seeded in 10 cm dishes with DMEM, 10% FBS, 1% L-G (without antibiotic) medium, incubated at 37 °C, with 5 % CO2 for 24 h. Cells were transfected with a transfection mix containing […] of Opti-MEM (Thermo Fisher Scientific), 20 μL of PEI stock (1 mg/mL) and […] of the desired cDNA. For co-transfection, 2.5 μg of DNA of each plasmid was used. The mix was vortexed for 15 s and incubated at room temperature for 15–20 min. The transfection mix was added to the dish and gently mixed. Plates were incubated at 37 °C for 36–48 h before harvesting. For USP33 constructs, 5 μM Bortezomib (proteasome inhibitor) was added 4 hours before harvesting the cells.
FLAG fusion proteins were immunoprecipitated from HEK293 cells transfected with plasmids encoding the protein of interest using the anti-FLAG M2 affinity gel from Sigma-Aldrich. Cell pellets were lysed with 100–200 μL/per dish lysis buffer (Pierce RIPA buffer, 1X protease inhibitor (Roche), 50 unit/μL of Benzonase Nuclease) rotating at 4 °C for 30–45 min. […] The cell lysate was clarified by centrifugation at 17,000 x g, at 4 °C for 12 min, and the supernatant was transferred to a clean, pre-chilled low-binding Eppendorf tube. […] The IP samples were centrifuged at 6500 x g at 4 °C for 30 s. The supernatant containing the unbound proteins was transferred to a clean tube. The resin was washed three times with 500 μL of TBS, centrifuged at 6500 x g at 4 °C for 30 s. The bound FLAG fusion protein was eluted with 100 μL of 150 ng/μL 3X FLAG peptide (Sigma) in TBS and incubated in the cold room for 1 h or overnight. The tube was centrifuged at 6500 x g at 4 °C for 30 s; the eluted proteins were transferred to a clean tube. The eluted proteins were prepared for analysis by western blot or Mass Spectrometry.
Immunoprecipitation (IP) was carried out as described above; four technical replicates of each IP condition were performed, and the empty vector was used as a negative control. The eluted protein was processed following the Strap-micro protocol (Protifi). The IP elution containing 1–100 μg protein was 1:1 mixed with 2X lysis buffer (10% SDS, 100 mM TEAB pH 8.5). […] Samples were vortexed, mixed with 165 μL of 100 mM TEAB in 90% methanol, and passed through an S-Trap micro column at 4000 g for 30 s to trap the proteins. The column was washed with 150 μL of 100 mM TEAB in 90% methanol (at 4,000 x g for 30 seconds) three times. The S-Trap column was centrifuged again and transferred to a clean 2 mL tube for digestion with 20 μL of digestion buffer (1 μg trypsin per 10 μg sample in 50 mM TEAB), at 37 °C overnight in a thermomixer without shaking. The digested peptides were eluted with […] of 50 mM TEAB in water, […] of 0.2 % formic acid in water, and […] of 50 % acetonitrile in water, centrifuging at 4000 x g for 1 min each time. The three elutions were pooled in a low-binding tube, placed on dry ice until frozen, dried in a SpeedVac vacuum (Thermo Scientific), and proceeded with the LCMS analysis.
Eluted peptides were resuspended in water supplemented with 0.015% dodecyl maltoside and 0.1% formic acid and were injected on a Vanquish Neo UHPLC System operating in trap and elute mode coupled to an Orbitrap Astral Mass Spectrometer (Thermo Fisher Scientific). […] Eluted peptides were analyzed using data-independent acquisition mode on the mass spectrometer.
Peptides were searched against the Uniprot Swissprot Human database (released on 02/01/2023) supplemented with the USP20 and USP33 mutants using DiaNN (v1.9.0)[62] operating in library-free mode. Data filtering and statistical analysis were carried out in Python (v3.9.0) using the packages pandas, numpy, sklearn, scipy, rpy2, Plotnine, and Plotly and R (v4.4.3) using the package limma.
Protein groups identified with a single peptide or quantified in fewer than three replicates in at least 1 condition were filtered out. […]

[2] = tested on: FLAG-USP20; assay: IP-MS of FLAG-USP20 and variants vs empty vector; assay type: cell-based, human
Description: For transfection, 1x10^6 HEK293 cells were seeded in 10 cm dishes with DMEM, 10% FBS, 1% L-G (without antibiotic) medium, incubated at 37 °C, with 5 % CO2 for 24 h. Cells were transfected with a transfection mix containing 970 mL of Opti-MEM (Thermo Fisher Scientific), 20 μL of PEI stock (1 mg/mL) and 5 mg of the desired cDNA. For co-transfection, 2.5 μg of DNA of each plasmid was used. The mix was vortexed for 15 s and incubated at room temperature for 15–20 min. The transfection mix was added to the dish and gently mixed. Plates were incubated at 37 °C for 36–48 h before harvesting. For USP33 constructs, 5 μM Bortezomib (proteasome inhibitor) was added 4 hours before harvesting the cells.
FLAG fusion proteins were immunoprecipitated from HEK293 cells transfected with plasmids encoding the protein of interest using the anti-FLAG M2 affinity gel from Sigma-Aldrich. […] The cell lysate was clarified by centrifugation at 17,000 x g, at 4 °C for 12 min, and the supernatant was transferred to a clean, pre-chilled low-binding Eppendorf tube. […] The IP samples were centrifuged at 6500 x g at 4 °C for 30 s. The supernatant containing the unbound proteins was transferred to a clean tube. The resin was washed three times with 500 μL of TBS, centrifuged at 6500 x g at 4 °C for 30 s. The bound FLAG fusion protein was eluted with 100 μL of 150 ng/μL 3X FLAG peptide (Sigma) in TBS and incubated in the cold room for 1 h or overnight. The tube was centrifuged at 6500 x g at 4 °C for 30 s; the eluted proteins were transferred to a clean tube. The eluted proteins were prepared for analysis by western blot or Mass Spectrometry.
Immunoprecipitation (IP) was carried out as described above; four technical replicates of each IP condition were performed, and the empty vector was used as a negative control. The eluted protein was processed following the Strap-micro protocol (Protifi). The IP elution containing 1–100 μg protein was 1:1 mixed with 2X lysis buffer (10% SDS, 100 mM TEAB pH 8.5). […] Samples were vortexed, mixed with 165 μL of 100 mM TEAB in 90% methanol, and passed through an S-Trap micro column at 4000 g for 30 s to trap the proteins. The column was washed with 150 μL of 100 mM TEAB in 90% methanol (at 4,000 x g for 30 seconds) three times. The S-Trap column was centrifuged again and transferred to a clean 2 mL tube for digestion with 20 μL of digestion buffer (1 μg trypsin per 10 μg sample in 50 mM TEAB), at 37 °C overnight in a thermomixer without shaking. The digested peptides were eluted with 40 mL of 50 mM TEAB in water, 40 mL of 0.2 % formic acid in water, and 40 mL of 50 % acetonitrile in water, centrifuging at 4000 x g for 1 min each time. The three elutions were pooled in a low-binding tube, placed on dry ice until frozen, dried in a SpeedVac vacuum (Thermo Scientific), and proceeded with the LCMS analysis.
Protein groups identified with a single peptide or quantified in fewer than three replicates in at least 1 condition were filtered out. Protein group intensities were median normalized and missing values were imputed using a Gaussian distribution centered on the median with a downshift of 1.8 and width of 0.3 (relative to the standard deviation).

[3] = IP-MS, FLAG-USP33 UBP mutant vs EV, comparison USP33_E86K_D90R/EV, Limma
[4] = IP-MS, FLAG-USP33-ΔDUSP2 vs EV, comparison bh_2 Sample_Limma_ImpMedInt_USP33_DUSP2_domain/EV
[5] = IP-MS, FLAG-USP33-ΔUBP vs EV, comparison bh_2 Sample_Limma_ImpMedInt_USP33_UBP_domain/EV
[6] = IP-MS, FLAG-USP33 vs EV, comparison USP33_wt/EV, Limma
[7] = Table S7c USP33 MS_and_motif, bait USP33

Molecule	log2_FC [1, 3]	log2_FC [1, 4]	log2_FC [1, 5]	log2_FC [1, 6]	log2_FC [1, 7]	log2_FC ([2]; IP-MS, FLAG-USP20-ΔUBP vs EV, comparison bh_2 Sample_Limma_ImpMedInt_USP20_UBP_domain/EV)	log2_FC ([2]; IP-MS, FLAG-USP20 vs EV, comparison USP20_wt/EV, Limma)	log2_FC ([2]; Table S7b USP20 MS_and_motif, bait USP20)
BLTP3B (protein, UniProt A0JNW5 1-1464, looked up) Bridge-like lipid transfer …: MAGIIKKQILKHLSRFTKNLSPDKINLSTLKGEGELKNLELDEEVLQNMLDLPTWLAINKVFCNKASIRIPWTKLKTHPICLSLDKVIMEMSTCEEPRSPNGPSPIATASGQSEYGFAEKVVEGISVSVNSIVIRIGAKAFNASFELSQLRIYSVNAHWEHGDLRFTRIQDPQRGEVLTFKEINWQMIRIEADATQSSHLEIMCAPVRLITNQSKIRVTLKRRLKDCNVIATKLVLILDDLLWVLTDSQLKAMVQYAKSLSEAIEKSTEQRKSMAPEPTQSSTVVASAQQVKTTQTSNAPDVNDAIVKLFNDFDVKETSHHLVISHLDLHICDDIHAKEKESNRRITGGAMQLSFTQLTIDYYPYHKAGDSCNHWMYFSDATKTKNGWANELLHEFECNVEMLKQAVKDHNVGSPPKSPTHASPQHTQTEKDYPLKGTCRTPSVLSQQSKAKLMSSSVVVRLADFNIYQVSTAEQCRSSPKSMICCNKKSLYLPQEMSAVYIEFTEYYYPDGKDFPIPSPNLYSQLNALQFTVDERSILWLNQFLLDLKQSLNQFMAVYKLNDNSKSDEHVDVRVDGLMLKFVIPSEVKSECHQDQPRAISIQSSEMIATNTRHCPNCRHSDLEALFQDFKDCDFFSKTYTSFPKSCDNFNLLHPIFQRHAHEQDTKMHEIYKGNITPQLNKNTLKTSAATDVWAVYFSQFWIDYEGMKSGKGRPISFVDSFPLSIWICQPTRYAESQKEPQTCNQVSLNTSQSESSDLAGRLKRKKLLKEYYSTESEPLTNGGQKPSSSDTFFRFSPSSSEADIHLLVHVHKHVSMQINHYQYLLLLFLHESLILLSENLRKDVEAVTGSPASQTSICIGILLRSAELALLLHPVDQANTLKSPVSESVSPVVPDYLPTENGDFLSSKRKQISRDINRIRSVTVNHMSDNRSMSVDLSHIPLKDPLLFKSASDTNLQKGISFMDYLSDKHLGKISEDESSGLVYKSGSGEIGSETSDKKDSFYTDSSSILNYREDSNILSFDSDGNQNILSSTLTSKGNETIESIFKAEDLLPEAASLSENLDISKEETPPVRTLKSQSSLSGKPKERCPPNLAPLCVSYKNMKRSSSQMSLDTISLDSMILEEQLLESDGSDSHMFLEKGNKKNSTTNYRGTAESVNAGANLQNYGETSPDAISTNSEGAQENHDDLMSVVVFKITGVNGEIDIRGEDTEICLQVNQVTPDQLGNISLRHYLCNRPVGSDQKAVIHSKSSPEISLRFESGPGAVIHSLLAEKNGFLQCHIENFSTEFLTSSLMNIQHFLEDETVATVMPMKIQVSNTKINLKDDSPRSSTVSLEPAPVTVHIDHLVVERSDDGSFHIRDSHMLNTGNDLKENVKSDSVLLTSGKYDLKKQRSVTQATQTSPGVPWPSQSANFPEFSFDFTREQLMEENESLKQELAKAKMALAEAHLEKDALLHHIKKMTVE	2.646							
IFT56 (protein, UniProt A0AVF1 1-554, looked up) Intraflagellar transport …: MMLSRAKPAVGRGVQHTDKRKKKGRKIPKLEELLSKRDFTGAITLLEFKRHVGEEEEDTNLWIGYCAFHLGDYKRALEEYENATKEENCNSEVWVNLACTYFFLGMYKQAEAAGFKASKSRLQNRLLFHLAHKFNDEKKLMSFHQNLQDVTEDQLSLASIHYMRSHYQEAIDIYKRILLDNREYLALNVYVALCYYKLDYYDVSQEVLAVYLQQIPDSTIALNLKACNHFRLYNGRAAEAELKSLMDNASSSFEFAKELIRHNLVVFRGGEGALQVLPPLVDVIPEARLNLVIYYLRQDDVQEAYNLIKDLEPTTPQEYILKGVVNAALGQEMGSRDHMKIAQQFFQLVGGSASECDTIPGRQCMASCFFLLKQFDDVLIYLNSFKSYFYNDDIFNFNYAQAKAATGNTSEGEEAFLLIQSEKMKNDYIYLSWLARCYIMNKKPRLAWELYLKMETSGESFSLLQLIANDCYKMGQFYYSAKAFDVLERLDPNPEYWEGKRGACVGIFQMIIAGREPKETLREVLHLLRSTGNTQVEYMIRIMKKWAKENRVSI		3.226	2.888					
TMEM223 (protein, UniProt A0PJW6 1-202, looked up) Transmembrane protein 223: MAAPWRRWPTGLLAVLRPLLTCRPLQGTTLQRDVLLFEHDRGRFFTILGLFCAGQGVFWASMAVAAVSRPPVPVQPLDAEVPNRGPFDLRSALWRYGLAVGCGAIGALVLGAGLLFSLRSVRSVVLRAGGQQVTLTTHAPFGLGAHFTVPLKQVSCMAHRGEVPAMLPLKVKGRRFYFLLDKTGHFPNTKLFDNTVGAYRSL	4.422	4.626	4.59	4.38	4.38	4.865	4.082	4.082
ILVBL (protein, UniProt A1L0T0 1-632, looked up) 2-hydroxyacyl-CoA lyase 2: METPAAAAPAGSLFPSFLLLACGTLVAALLGAAHRLGLFYQLLHKVDKASVRHGGENVAAVLRAHGVRFIFTLVGGHISPLLVACEKLGIRVVDTRHEVTAVFAADAMARLSGTVGVAAVTAGPGLTNTVTAVKNAQMAQSPILLLGGAASTLLQNRGALQAVDQLSLFRPLCKFCVSVRRVRDIVPTLRAAMAAAQSGTPGPVFVELPVDVLYPYFMVQKEMVPAKPPKGLVGRVVSWYLENYLANLFAGAWEPQPEGPLPLDIPQASPQQVQRCVEILSRAKRPLMVLGSQALLTPTSADKLRAAVETLGVPCFLGGMARGLLGRNHPLHIRENRSAALKKADVIVLAGTVCDFRLSYGRVLSHSSKIIIVNRNREEMLLNSDIFWKPQEAVQGDVGSFVLKLVEGLQGQTWAPDWVEELREADRQKEQTFREKAAMPVAQHLNPVQVLQLVEETLPDNSILVVDGGDFVGTAAHLVQPRGPLRWLDPGAFGTLGVGAGFALGAKLCRPDAEVWCLFGDGAFGYSLIEFDTFVRHKIPVMALVGNDAGWTQISREQVPSLGSNVACGLAYTDYHKAAMGLGARGLLLSRENEDQVVKVLHDAQQQCRDGHPVVVNILIGRTDFRDGSIAV		1.755		1.749	1.749			
GTPBP10 (protein, UniProt A4D1E9 1-387, looked up) GTP-binding protein 10: MVHCSCVLFRKYGNFIDKLRLFTRGGSGGMGYPRLGGEGGKGGDVWVVAQNRMTLKQLKDRYPRKRFVAGVGANSKISALKGSKGKDCEIPVPVGISVTDENGKIIGELNKENDRILVAQGGLGGKLLTNFLPLKGQKRIIHLDLKLIADVGLVGFPNAGKSSLLSCVSHAKPAIADYAFTTLKPELGKIMYSDFKQISVADLPGLIEGAHMNKGMGHKFLKHIERTRQLLFVVDISGFQLSSHTQYRTAFETIILLTKELELYKEELQTKPALLAVNKMDLPDAQDKFHELMSQLQNPKDFLHLFEKNMIPERTVEFQHIIPISAVTGEGIEELKNCIRKSLDEQANQENDALHKKQLLNLWISDTMSSTEPPSKHAVTTSKMDII			2.53					
